Literature values in patent publication US10064909B2, “Compositions and methods for chronic use of a weight-gaining compound” (priority 2015, dated 2018).
Ends that are not written are not given here.

Details: in vivo; cited from earlier work

For “Ghrelin: hormone produced predominantly in the glandular stomach; endogenous ligand of the ghrelin receptor (GHS-R) (GSSFLSPEHQRVQQRKESKKPPAKLQPR; ends and bridges not checked; UniProt Q9UBU3 24-51, looked up)”, the “half-life in the blood” value is given as “approximately ten minutes”.
